Among the data in patent US20250361297A1, “ANTI- SIGLEC-15 BINDING MOLECULES AND METHODS OF USE” (ADAPTAM THERAPEUTICS, S.L., priority 2024, published 2025) are EC50 (read off the curve) values, retold here.

This experiment concerns the target human Siglec-15, full length, expressed on cells (human) (UniProt Q6ZMC9). Kind of experiment: flow cytometry, THP-1 cells overexpressing human Siglec-15, ADC titrated, anti-human IgG-PE, gMFI.

human Siglec-15, full length, expressed on cells (human), sequence (Q6ZMC9 20-328 limits assumed): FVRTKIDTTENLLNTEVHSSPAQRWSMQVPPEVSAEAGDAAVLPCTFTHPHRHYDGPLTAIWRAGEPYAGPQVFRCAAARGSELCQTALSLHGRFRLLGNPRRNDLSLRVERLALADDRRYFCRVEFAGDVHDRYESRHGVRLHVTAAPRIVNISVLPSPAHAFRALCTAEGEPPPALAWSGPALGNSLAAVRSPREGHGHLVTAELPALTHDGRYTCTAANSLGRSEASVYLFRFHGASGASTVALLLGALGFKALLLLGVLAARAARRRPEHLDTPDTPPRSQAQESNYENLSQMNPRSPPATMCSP

B1: ZLA-1243-E01-Exatecan (protein)
VH: QVQLVQSGGGLVQPGRSLRLSCAASGFTFDDYAMHWVRQAPGKGLEWVSGISWNSGSIGYADSVKGRFTISRDNAKNSLYLQMNSLRAEDTALYYCAKGLWPSYDLDAFDIWGQGTMVTVSS
VL: QSALTQPASVSGSPGQSITLSCTGTSSDVGAYNFVSWYQQHPGTAPKLMIYEVSNRPSGVSDRFSGSKSGNTASLTISGLQAEDEADYYCSSYTSTIPPFVFGTGTKVTVL
modifications: Antibody-drug conjugate: exatecan payload joined through an MC-GGFG linker. The attachment residues are not stated and the letters cannot carry the payload.
For the molecule B1, the EC50 (read off the curve) was 3 nM.
